Assay results as given in the Human Domainome abundance scans (Beltran et al. 2025).
± gives the uncertainty stated by the source.

B1: Zinc finger homeobox protein 4, residues 2562 to 2617; numbered along this chain, Q86UP3 (parent)
chain: RLRTTITPEQLEILYEKYLLDSNPTRKMLDHIAREVGLKKRVVQVWFQNTRARERK

Variants of: B1
Experiment: abundance fitness (aPCA) (normalised: wild type 0, dead -1); higher = more abundant; growth selection in yeast, the domain comes from the species named
Settings: Homo sapiens

Variant	abundance fitness
T25R	-0.72 ± 0.17
T25C	0.181 ± 0.15
T25L	-0.546 ± 0.13
T25Q	-0.476 ± 0.41
T25M	-0.364 ± 0.22
T25H	-0.596 ± 0.48
T25S	-0.056 ± 0.11
T25N	-0.148 ± 0.094
T25P	-0.147 ± 0.13
T25A	-0.384 ± 0.11
T25I	-0.526 ± 0.44
T25E	0.095 ± 0.075
T25D	-0.193 ± 0.17
T25G	-0.331 ± 0.061
N23H	-0.302 ± 0.27
N23K	-0.054 ± 0.11
N23R	0.017 ± 0.057
N23D	-0.039 ± 0.14
N23E	-0.086 ± 0.11
N23T	-0.213 ± 0.071
N23L	-0.238 ± 0.065

Variant	abundance fitness
N23C	-0.738 ± 0.2
N23I	-0.091 ± 0.15
N23A	-0.064 ± 0.068
N23M	-0.105 ± 0.11
N23Q	0.013 ± 0.063
N23S	-0.1 ± 0.061
N23G	-0.121 ± 0.072
N23W	-0.208 ± 0.11
N23V	-0.356 ± 0.09
N23F	0.301 ± 0.15
N23P	-0.425 ± 0.18
N23Y	-0.062 ± 0.12
P24C	-0.777 ± 0.077
P24V	-0.82 ± 0.098
P24K	-0.948 ± 0.2
P24N	-0.754 ± 0.1
P24F	-0.503 ± 0.18
P24G	-0.852 ± 0.099
P24Q	-0.929 ± 0.12
P24M	-0.687 ± 0.12
P24L	-0.639 ± 0.061

Variant	abundance fitness
P24E	-0.976 ± 0.13
P24D	-0.679 ± 0.064
P24A	-0.861 ± 0.15
P24S	-0.968 ± 0.16
P24R	-0.925 ± 0.07
P24I	-0.415 ± 0.22
P24T	-0.947 ± 0.12
P24H	-0.847 ± 0.2
D21C	-0.378 ± 0.11
D21P	-0.769 ± 0.3
D21W	-0.505 ± 0.12
D21S	-0.433 ± 0.064
D21Q	-0.352 ± 0.1
D21I	-0.406 ± 0.12
D21E	0.078 ± 0.11
D21F	-0.302 ± 0.16
D21Y	-0.5 ± 0.063
D21G	-0.433 ± 0.081
D21L	-0.474 ± 0.057
D21R	-0.796 ± 0.099
D21K	-0.727 ± 0.097

Variant	abundance fitness
D21N	-0.188 ± 0.086
D21A	-0.435 ± 0.085
D21V	-0.465 ± 0.075
D21M	-0.673 ± 0.21
D21T	-0.458 ± 0.061
Y18I	-0.246 ± 0.27
Y18R	-0.659 ± 0.12
Y18H	-0.773 ± 0.31
Y18S	-0.975 ± 0.18
Y18A	-1.06 ± 0.2
Y18T	-0.874 ± 0.23
Y18D	-1.13 ± 0.4
Y18N	-0.59 ± 0.42
Y18C	-0.817 ± 0.077
Y18F	0.425 ± 0.18
Y18M	-0.856 ± 0.32
Y18V	-0.764 ± 0.095
Y18K	-0.544 ± 0.27
Y18E	-0.943 ± 0.22
Y18W	-0.31 ± 0.1
